Experiment [1] deals with T1, human GIPR expressed in HEK293 cells (human, UniProt P48546 22-466).
T1 chain: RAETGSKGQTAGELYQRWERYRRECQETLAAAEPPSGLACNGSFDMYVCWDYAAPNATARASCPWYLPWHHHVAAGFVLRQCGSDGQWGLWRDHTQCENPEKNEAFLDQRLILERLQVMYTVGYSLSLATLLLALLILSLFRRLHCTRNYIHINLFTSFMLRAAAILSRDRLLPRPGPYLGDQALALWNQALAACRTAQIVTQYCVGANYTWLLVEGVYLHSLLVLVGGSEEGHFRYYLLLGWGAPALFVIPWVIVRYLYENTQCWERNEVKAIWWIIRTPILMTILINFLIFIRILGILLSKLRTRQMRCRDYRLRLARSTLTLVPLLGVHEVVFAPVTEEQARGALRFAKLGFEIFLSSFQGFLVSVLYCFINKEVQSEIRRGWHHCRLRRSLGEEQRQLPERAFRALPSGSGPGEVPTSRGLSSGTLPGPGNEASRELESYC
As to the kind of experiment: [125I]GIP competition, cell membranes.

The target of experiment [2] is T2, human GLP-1R expressed in HEK293 cells (human, UniProt P43220 24-463).
T2 chain: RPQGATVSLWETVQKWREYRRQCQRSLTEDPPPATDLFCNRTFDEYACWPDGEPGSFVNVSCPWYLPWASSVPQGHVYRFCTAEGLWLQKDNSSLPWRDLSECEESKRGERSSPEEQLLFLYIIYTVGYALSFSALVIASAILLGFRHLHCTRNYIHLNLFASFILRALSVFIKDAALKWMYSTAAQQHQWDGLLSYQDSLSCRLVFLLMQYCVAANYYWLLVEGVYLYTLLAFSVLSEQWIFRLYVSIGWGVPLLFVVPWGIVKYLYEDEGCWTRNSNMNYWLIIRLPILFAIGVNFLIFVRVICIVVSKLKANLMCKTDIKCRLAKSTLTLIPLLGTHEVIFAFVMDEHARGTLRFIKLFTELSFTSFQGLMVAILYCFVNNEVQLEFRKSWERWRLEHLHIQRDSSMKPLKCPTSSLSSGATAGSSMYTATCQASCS
As to the kind of experiment: [125I]GLP-1 competition, cell membranes.

Experiment [3] addresses T2, human GLP-1R expressed in HEK293 cells. As to the kind of experiment: [125I]GLP-1 competition, cell membranes.
In experiment [4] the target is T3, isolated extracellular domain (ECD) of human GLP-1R, amino acids 24 to 145 (human, UniProt P43220 24-145).
T3 chain: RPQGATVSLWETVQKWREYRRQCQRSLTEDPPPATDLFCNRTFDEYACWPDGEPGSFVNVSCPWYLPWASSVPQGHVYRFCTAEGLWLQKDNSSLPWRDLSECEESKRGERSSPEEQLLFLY
As to the kind of experiment: SPR; kinetic fit. On the technique in general: Surface plasmon resonance follows binding to a sensor surface in real time, without labels.

For experiment [5], the target named is T1, human GIPR expressed in HEK293 cells. As to the kind of experiment: [125I]GIP competition, cell membranes.

Read-outs that look alike come from different tables or passages of the source. Where no end group is shown, it is not given here. [ ]: non-standard residue; d: D form. Aib = CC(C)(N)C(=O)O

B1: tirzepatide analog lacking the lipid moiety and containing histidine in place of tyrosine at position 1 (TZP^ΔC20,Y1H) (peptide)
chain: HAEGTFTSDYSI[Aib]LDKIAQKAFVQWLIAGGPSSGAPPPS
modifications: not fully specified (residue 2, C-terminus); ends and bridges not checked
One may read the Ki as the dissociation constant of the complex between target and ligand, obtained from inhibition or displacement. Low readings indicate higher affinity, high ones lower affinity. As to B1, the Ki in experiment [1] is 0.416 nM; in experiment [2], 0.599 nM.

B2: tirzepatide analog lacking the lipid moiety (TZP^ΔC20) (peptide)
chain: YAEGTFTSDYSI[Aib]LDKIAQKAFVQWLIAGGPSSGAPPPS
As usually defined, the Kd is the equilibrium constant for the complex coming apart. Read a low Kd as a tighter complex. On to B2, for which the Ki in experiment [3] worked out at 2.67 nM; in experiment [5], 0.0235 nM. Binding in experiment [4] was characterised by a dissociation constant (Kd) of 70.6 nM.

B3: tirzepatide (LY3298176) (peptide)
chain: YAEGTFTSDYSIALDKIAQKAFVQWLIAGGPSSGAPPPS
modifications: not fully specified
In experiment [5], B3 gave a Ki of 0.087 nM.

B4: GLP-1H7Y (peptide)
chain: YAEGTFTSDVSSYLEGQAAKEFIAWLVKGR
modifications: not fully specified (C-terminus)
In experiment [1], B4 came in with a Ki of more than 128 nM.

For the origin of these results see article PMC9060465 (2022).
